Test results: EP4786493A1

Experiments:
[1] = target: human Claudin 18.2 expressed on cells (HEK293/human Claudin 18.2; CHO-K1/human Claudin 18.2) (human) (UniProt P56856); experiment: cell-based or functional assay
[2] = target: human Claudin 18.2 expressed on cells (HEK293/human Claudin 18.2; CHO-K1/human Claudin 18.2) (human) (UniProt P56856); experiment: flow cytometry on HEK293 cells expressing human Claudin 18.2
[3] = target: recombinant human Claudin 18.2 protein (GenScript, Z03504) (human) (UniProt P56856); experiment: SPR Biacore 8K, antibody captured via Fc, human Claudin 18.2 protein as analyte
[4] = target: recombinant human Claudin 18.2 protein (GenScript, Z03504) (human) (UniProt P56856); experiment: indirect ELISA, plate coated with recombinant human Claudin 18.2, anti-human IgG Fc-HRP detection
[5] = target: recombinant human Claudin 18.2 protein (GenScript, Z03504) (human) (UniProt P56856); experiment: competition ELISA on coated recombinant human Claudin 18.2; unlabelled IMAB362 against biotinylated IMAB362 (0.72 µg/ml)

Human IgG1 (antibody)
ADCC reporter gene assay (CHO-K1/Claudin 18.2 target cells, GS-J2C/CD16A 158V effector cells): EC50 [1]: 352 nM
ADCC reporter gene assay (CHO-K1/Claudin 18.2 target cells, GS-J2C/CD16A 158V effector cells): Top [1]: 90500
CDC on CHO-K1/human Claudin 18.2 cells: EC50 [1]: 23.7
CDC on CHO-K1/human Claudin 18.2 cells: Top [1]: 5.61%

Zolbetuximab (IMAB362, HuIgG1) (antibody)
ADCC reporter gene assay (CHO-K1/Claudin 18.2 target cells, GS-J2C/CD16A 158V effector cells): EC50 [1]: 0.758 nM
ADCC reporter gene assay (CHO-K1/Claudin 18.2 target cells, GS-J2C/CD16A 158V effector cells): Top [1]: 213000
CDC on CHO-K1/human Claudin 18.2 cells: Top [1]: 93%
EC50 [2]: 7.8 nM
Kd [3]: 39.3 nM
EC50 [4]: 1.53 nM
IC50 [5]: 1.79 nM
